Experimental data reported in patent US11401512.

What was measured:
Test in all cases: cell_activity
[1] = system: 47898-FLAG ZFN (right, albumin) (synthetic)
[2] = system: 71728 ZFN (right, albumin) F3 m5Q; FokI P478S (synthetic)
[3] = system: 71557 ZFN (left, albumin) F1 m5Q, F3 m5Q; FokI N542D (synthetic)
[4] = system: SBS47171-FLAG ZFN (left, albumin) (synthetic)
[5] = off-target, pair 47171/47898, AAV 600K MOI
[6] = off-target, pair 71557/71728, AAV 600K MOI

Q: For “CCTATCCATTGCACTATGCTTTATTTAA (double strand) [albumin right ZFN half-site]”, which activity ([1]; with 47171, primary human hepatocytes, AAV 600K MOI, day 10) is on record?
A: 25.4 % indels

Q: And the activity ([2]; with 71557, primary human hepatocytes, AAV 600K MOI, day 10)?
A: 44.2 % indels

Q: How did the activity [1, 5] turn out when SMCHD1 off-target site was run?
A: 0.36 % indels

Q: What about the activity [3, 6] of the same substance?
A: 0.34 % indels

Q: What about the activity [2, 6] of the same substance?
A: 0.34 % indels

Q: And the activity [4, 5]?
A: 0.36 % indels

Q: Which results are given for “TTTGGGATAGTTATGAATTCAATCTTCA (double strand) [albumin left ZFN half-site (A/T allele)]”?
A: activity ([3]; with 71728, primary human hepatocytes, AAV 600K MOI, day 10): 44.2 % indels; activity ([4]; with 47898, primary human hepatocytes, AAV 600K MOI, day 10): 25.4 % indels
